Measurements taken from PMC4805664 (2016).
Square brackets hold non-standard residues; d marks the D form. * marks the point of attachment. DOTA = O=C(O)CN1CCN(CC(=O)O)CCN(CC(=O)*)CCN(CC(=O)O)CC1

Columns and labels:
La-DOTA-c(RGDyK) [1] = biological target: T1, La-DOTA-c(RGDyK) (also: DOTA as La complex); test: SPR competition
T1 chain: cyclo(RGD[dY]K(DOTA))

La-DOTA-c(RGDyK) [2] = biological target: T1, La-DOTA-c(RGDyK); test: SPR competition

B1: Integrin alphaVbeta3 (protein)
chain 1: FNLDVDSPAEYSGPEGSYFGFAVDFFVPSASSRMFLLVGAPKANTTQPGIVEGGQVLKCDWSSTRRCQPIEFDATGNRDYAKDDPLEFKSHQWFGASVRSKQDKILACAPLYHWRTEMKQEREPVGTCFLQDGTKTVEYAPCRSQDIDADGQGFCQGGFSIDFTKADRVLLGGPGSFYWQGQLISDQVAEIVSKYDPNVYSIKYNNQLATRTAQAIFDDSYLGYSVAVGDFNGDGIDDFVSGVPRAARTLGMVYIYDGKNMSSLYNFTGEQMAAYFGFSVAATDINGDDYADVFIGAPLFMDRGSDGKLQEVGQVSVSLQRASGDFQTTKLNGFEVFARFGSAIAPLGDLDQDGFNDIAIAAPYGGEDKKGIVYIFNGRSTGLNAVPSQILEGQWAARSMPPSFGYSMKGATDIDKNGYPDLIVGAFGVDRAILYRARPVITVNAGLEVYPSILNQDNKTCSLPGTALKVSCFNVRFCLKADGKGVLPRKLNFQVELLLDKLKQKGAIRRALFLYSRSPSHSKNMTISRGGLMQCEELIAYLRDESEFRDKLTPITIFMEYRLDYRTAADTTGLQPILNQFTPANISRQAHILLDCGEDNVCKPKLEVSVDSDQKKIYIGDDNPLTLIVKAQNQGEGAYEAELIVSIPLQADFIGVVRNNEALARLSCAFKTENQTRQVVCDLGNPMKAGTQLLAGLRFSVHQQSEMDTSVKFDLQIQSSNLFDKVSPVVSHKVDLAVLAAVEIRGVSSPDHVFLPIPNWEHKENPETEEDVGPVVQHIYELRNNGPSSFSKAMLHLQWPYKYNNNTLLYILHYDIDGPMNCTSDMEINPLRIKISSLQTTEKNDTVAGQGERDHLITKRDLALSEGDIHTLGCGVAQCLKIVCQVGRLDRGKSAILYVKSLLWTETFMNKENQNHSYSLKSSASFNVIEFPYKNLPIEDITNSTLVTTNVTWGIQPAPMPV
chain 2: GPNICTTRGVSSCQQCLAVSPMCAWCSDEALPLGSPRCDLKENLLKDNCAPESIEFPVSEARVLEDRPLSDKGSGDSSQVTQVSPQRIALRLRPDDSKNFSIQVRQVEDYPVDIYYLMDLSYSMKDDLWSIQNLGTKLATQMRKLTSNLRIGFGAFVDKPVSPYMYISPPEALENPCYDMKTTCLPMFGYKHVLTLTDQVTRFNEEVKKQSVSRNRDAPEGGFDAIMQATVCDEKIGWRNDASHLLVFTTDAKTHIALDGRLAGIVQPNDGQCHVGSDNHYSASTTMDYPSLGLMTEKLSQKNINLIFAVTENVVNLYQNYSELIPGTTVGVLSMDSSNVLQLIVDAYGKIRSKVELEVRDLPEELSLSFNATCLNNEVIPGLKSCMGLKIGDTVSFSIEAKVRGCPQEKEKSFTIKPVGFKDSLIVQVTFDCDCACQAQAEPNSHRCNNGNGTFECGVCRCGPGWLGSQCECSEEDYRPSQQDECSPREGQPVCSQRGECLCGQCVCHSSDFGKITGKYCECDDFSCVRYKGEMCSGHGQCSCGDCLCDSDWTGYYCNCTTRTDTCMSSNGLLCSGRGKCECGSCVCIQPGSYGDTCEKCPTCPDACTFKKECVECKKFDRGALHDENTCNRYCRDEIESVKELKDTGKDAVNCTYKNEDDCVVRFQYYEDSSGKSILYVVEEPECPKGPD
B1 gave an IC50 (La-DOTA-c(RGDyK) [1]) of 33 nM and a Ki (La-DOTA-c(RGDyK) [2]) of 26 nM.
